Measured values taken from patent US20210040185A1 (ATRECA, published 2021).

Experiments:
Test in all cases: cell-based or functional assay
[1] = target: HIV-1 envelope (Env) of virus DU172.17 (HIV-1)
[2] = target: HIV-1 envelope (Env) of virus WITO4160.33 (HIV-1)
[3] = target: HIV-1 envelope (Env) of virus REJO4541.67 (HIV-1)
[4] = target: HIV-1 envelope (Env) of virus AC10.0.29 (HIV-1)
[5] = target: HIV-1 envelope (Env) of virus CNE20 (HIV-1)
[6] = target: HIV-1 envelope (Env) of virus CAP45.2.00.G3 (HIV-1)

B1: NVS49-L2A1 (antibody, V domains shown)
VH: HVQLVQSGGGVKKIGAAVRISCEVTGYKFMDQLINWVRQAPGQGLEWMGWMNPTYGQVNYSWRFEGRVTMTRDMDTETAFMELRGLRVDDTAVYYCARGPSGENYPFHYWGQGVRVVVSS
VL: ASALTQPASMSASPGQSVTISCSGTRHIISAWFQQYPGKPPKLIIFDDDKRPSGVPSRFSASRPGDTASLTISNVQPEDEATYICNTYEFFGGGTRLTVL
B1 was tested, and the “IC50 of viral neutralization (Env.IMC.LucR virus, TZM-BL reporter cells)” value (shortened to “IC50 of viral neutralization”) [1] was 0.128 µg/mL, the “IC50 of viral neutralization” value [2] was 0.213 µg/mL and the “IC50 of viral neutralization” value [3] was 0.022 µg/mL. For the same binder, the “IC50 of viral neutralization” value [4] was 0.306 µg/mL, the “IC50 of viral neutralization” value [5] was 0.05 µg/mL and the “IC50 of viral neutralization” value [6] was 0.069 µg/mL.

B2: L2A1_H58NA (antibody, V domains shown)
VH: HVQLVQSGGGVKKIGAAVRISCEVTGYKFMDQLINWVRQAPGQGLEWMGWMNPTYGQVAYSWRFEGRVTMTRDMDTETAFMELRGLRVDDTAVYYCARGPSGENYPFHYWGQGVRVVVSS
VL: ASALTQPASMSASPGQSVTISCSGTRHIISAWFQQYPGKPPKLIIFDDDKRPSGVPSRFSASRPGDTASLTISNVQPEDEATYICNTYEFFGGGTRLTVL
In the case of B2, the “IC50 of viral neutralization” value [1] is reported as 0.218 µg/mL, the “IC50 of viral neutralization” value [2] is reported as 0.259 µg/mL and the “IC50 of viral neutralization” value [3] is reported as 0.104 µg/mL. For the same binder, the “IC50 of viral neutralization” value [4] was 0.098 µg/mL, the “IC50 of viral neutralization” value [5] was greater than 50 µg/mL and the “IC50 of viral neutralization” value [6] was 0.05 µg/mL.

B3: L2A1_H60SN (antibody, V domains shown)
VH: HVQLVQSGGGVKKIGAAVRISCEVTGYKFMDQLINWVRQAPGQGLEWMGWMNPTYGQVNYNWRFEGRVTMTRDMDTETAFMELRGLRVDDTAVYYCARGPSGENYPFHYWGQGVRVVVSS
VL: ASALTQPASMSASPGQSVTISCSGTRHIISAWFQQYPGKPPKLIIFDDDKRPSGVPSRFSASRPGDTASLTISNVQPEDEATYICNTYEFFGGGTRLTVL
In the case of B3, the “IC50 of viral neutralization” value [1] is reported as 0.044 µg/mL, the “IC50 of viral neutralization” value [2] is reported as 0.212 µg/mL and the “IC50 of viral neutralization” value [3] is reported as 0.121 µg/mL. For the same binder, the “IC50 of viral neutralization” value [4] was 0.087 µg/mL, the “IC50 of viral neutralization” value [5] was 0.317 µg/mL and the “IC50 of viral neutralization” value [6] was 0.032 µg/mL.

B4: L2A1_H58NQ (antibody, V domains shown)
VH: HVQLVQSGGGVKKIGAAVRISCEVTGYKFMDQLINWVRQAPGQGLEWMGWMNPTYGQVQYSWRFEGRVTMTRDMDTETAFMELRGLRVDDTAVYYCARGPSGENYPFHYWGQGVRVVVSS
VL: ASALTQPASMSASPGQSVTISCSGTRHIISAWFQQYPGKPPKLIIFDDDKRPSGVPSRFSASRPGDTASLTISNVQPEDEATYICNTYEFFGGGTRLTVL
In the case of B4, the “IC50 of viral neutralization” value [1] is reported as 2.27 µg/mL, the “IC50 of viral neutralization” value [2] is reported as 0.222 µg/mL and the “IC50 of viral neutralization” value [3] is reported as 0.025 µg/mL. The “IC50 of viral neutralization” value [4] was greater than 50 µg/mL and the “IC50 of viral neutralization” value [5] was greater than 50 µg/mL.

B5: L2A1_H58ND (antibody, V domains shown)
VH: HVQLVQSGGGVKKIGAAVRISCEVTGYKFMDQLINWVRQAPGQGLEWMGWMNPTYGQVDYSWRFEGRVTMTRDMDTETAFMELRGLRVDDTAVYYCARGPSGENYPFHYWGQGVRVVVSS
VL: ASALTQPASMSASPGQSVTISCSGTRHIISAWFQQYPGKPPKLIIFDDDKRPSGVPSRFSASRPGDTASLTISNVQPEDEATYICNTYEFFGGGTRLTVL
In the case of B5, the “IC50 of viral neutralization” value [1] is reported as 20.9 µg/mL, the “IC50 of viral neutralization” value [2] is reported as 0.65 µg/mL and the “IC50 of viral neutralization” value [3] is reported as 0.212 µg/mL. For the same binder, the “IC50 of viral neutralization” value [4] was greater than 50 µg/mL and the “IC50 of viral neutralization” value [5] was greater than 50 µg/mL.

B6: L2A1_H58NS (antibody, V domains shown)
VH: HVQLVQSGGGVKKIGAAVRISCEVTGYKFMDQLINWVRQAPGQGLEWMGWMNPTYGQVSYSWRFEGRVTMTRDMDTETAFMELRGLRVDDTAVYYCARGPSGENYPFHYWGQGVRVVVSS
VL: ASALTQPASMSASPGQSVTISCSGTRHIISAWFQQYPGKPPKLIIFDDDKRPSGVPSRFSASRPGDTASLTISNVQPEDEATYICNTYEFFGGGTRLTVL
In the case of B6, the “IC50 of viral neutralization” value [1] is reported as 0.102 µg/mL, the “IC50 of viral neutralization” value [2] is reported as 0.182 µg/mL and the “IC50 of viral neutralization” value [3] is reported as 0.206 µg/mL. The “IC50 of viral neutralization” value [4] was 0.091 µg/mL, the “IC50 of viral neutralization” value [5] was greater than 50 µg/mL and the “IC50 of viral neutralization” value [6] was 0.04 µg/mL.

B7: L2A1_H60SA (antibody, V domains shown)
VH: HVQLVQSGGGVKKIGAAVRISCEVTGYKFMDQLINWVRQAPGQGLEWMGWMNPTYGQVNYAWRFEGRVTMTRDMDTETAFMELRGLRVDDTAVYYCARGPSGENYPFHYWGQGVRVVVSS
VL: ASALTQPASMSASPGQSVTISCSGTRHIISAWFQQYPGKPPKLIIFDDDKRPSGVPSRFSASRPGDTASLTISNVQPEDEATYICNTYEFFGGGTRLTVL
B7 was tested, and the “IC50 of viral neutralization” value [1] was 0.056 µg/mL, the “IC50 of viral neutralization” value [2] was 0.148 µg/mL and the “IC50 of viral neutralization” value [3] was 0.105 µg/mL. For the same binder, the “IC50 of viral neutralization” value [4] was 0.072 µg/mL, the “IC50 of viral neutralization” value [5] was 0.17 µg/mL and the “IC50 of viral neutralization” value [6] was 0.039 µg/mL.
